The values that follow come from US20190038660.

This data set has as its system ZF6-DBD (Artificial Sequence). Description: cell_activity. Particulars: in vivo porcine retina, AAV8 DBR-R vector 1x10^12 gc, hRHO-s-ΔZF6 promoter, qPCR 2 months after delivery; binding inferred from repression, not measured …. For orientation: In qPCR the cycle at which signal appears reflects the starting amount.

Chain of ZF6-DBD (Artificial Sequence) (chain, as listed by the source): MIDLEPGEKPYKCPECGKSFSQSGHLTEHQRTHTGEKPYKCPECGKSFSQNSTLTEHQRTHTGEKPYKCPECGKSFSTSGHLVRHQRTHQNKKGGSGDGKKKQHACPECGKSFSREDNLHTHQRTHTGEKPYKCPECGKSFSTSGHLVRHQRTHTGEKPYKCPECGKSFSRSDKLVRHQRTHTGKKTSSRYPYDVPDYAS

“porcine Rhodopsin proximal promoter (ZF6 target region)” came in with an activity (% repression of Rho transcript) of 35.
